Where “and” joins values, the source holds several entries; their conditions need not be identical. Identical values can stand only once. Residues, ends and D or L forms follow the SMILES beside them. *: point of attachment. Cbz = O=C(OCc1ccccc1)*
Assays:
Assay type in all cases: biochemical
[1] = target: T1, Aspergillus oryzae ATCC 20386 carboxypeptidase I (Aspergillus oryzae, UniProt Q2TZ11); test: Inhibition of the carboxypeptidase with 1,10-phenanthroline and phenylmethylsulfonyl fluoride; details: furylacryloyl-Ala-Lys as substrate, pH 7.0, 20 mM phosphate buffer, hydrolysis monitored at 340 nm
T1 sequence (Q2TZ11 19-555): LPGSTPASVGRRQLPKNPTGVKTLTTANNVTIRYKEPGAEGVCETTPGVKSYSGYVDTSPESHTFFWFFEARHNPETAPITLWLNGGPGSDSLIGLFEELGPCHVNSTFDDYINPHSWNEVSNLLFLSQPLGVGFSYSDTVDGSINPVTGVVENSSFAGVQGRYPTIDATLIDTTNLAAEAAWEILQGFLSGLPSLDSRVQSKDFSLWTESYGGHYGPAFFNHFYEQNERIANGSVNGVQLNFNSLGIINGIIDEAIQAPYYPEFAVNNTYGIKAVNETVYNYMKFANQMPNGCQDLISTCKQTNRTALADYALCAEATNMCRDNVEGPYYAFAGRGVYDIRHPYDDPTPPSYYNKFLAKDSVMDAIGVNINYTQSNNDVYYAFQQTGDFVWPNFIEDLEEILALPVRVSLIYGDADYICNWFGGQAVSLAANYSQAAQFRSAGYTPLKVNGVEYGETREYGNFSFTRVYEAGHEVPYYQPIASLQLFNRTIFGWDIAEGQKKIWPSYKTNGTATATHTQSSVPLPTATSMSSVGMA
Experimental: Inhibition of the carboxypeptidase with 1,10-phenanthroline and phenylmethylsulfonyl fluoride was evaluated using furylacryloyl-Ala-Lys as substrate at pH 7.0 in 20 mM phosphate buffer where hydrolysis was monitored at 340 nm.

[2] = test system: Aspergillus oryzae ATCC 20386 carboxypeptidase I; test: Substrate specificity of the carboxypeptidase (hydrolysis of N-CBZ-Ala-X / N-CBZ-Glu-X); details: compared with literature values
Experimental: (§1) The substrate specificity of the carboxypeptidase was determined by measuring the hydrolysis of a substrate listed in Table 1 at pH 4.0 in 50 mM acetate buffer. o-Phthaldialdehyde together with dithiothreitol were used to monitor the liberation of free IIe, Glu, Lys, Arg, Asp, Asn, Gly, Phe, amd Tyr under enzymatic hydrolysis according to the procedure of Roth, M., 1971, Analytical Chemistry 43: 880. The kcat value for the hydrolysis of N-CBZ-Ala-X or N-CBZ-Glu-X was determined based on the assumption that molecular weight of the carboxypeptidase was 68 kD and that the enzyme preparation was homogeneous.

[3] = target: T1, Aspergillus oryzae ATCC 20386 carboxypeptidase I; test: as above; details: 2 mM substrate, 2 hour incubation, 4.9×10^−7 M carboxypeptidase
Experimental: as §1

Soy Meal = test: Protein hydrolysis, degree of hydrolysis (DH), soy meal; details: Soy Meal 2% (w/v), pH 7.0, 18 hours at 50° C.; FLAVOURZYME 3 LAPU, carboxypeptidase 11.5 CPDU
Experimental: (§2) Commercial grade soy meal, wheat gluten, casein and gelatin were used as protein substrates. The soy meal was prepared from defatted toasted soy grits 20/80/20 (Cargill BV, NL); vital wheat gluten was obtained from Crespel and Dieters, Denmark; casein was obtained as Na-Caseinate Miprodan (MD Foods, Denmark); and gelatin was obtained as Bonegelatin (DGF Stores, Denmark).
(§3) The substrates were prepared as a 2% (w/v) aqueous solution, in which the protein concentration was determined by the method of Kjeldahl. Two hundred mg of each substrate, obtained in the form of a dry composition, was dissolved in 9 ml of tap water and the pH was adjusted to 7.0. […]
(§4) The hydrolysates were cooled and the degree of hydrolysis (DH) was assayed in microtiter plates using OPA (ortho-phtaldialdehyde, Sigma Chemical Co., St. Louis, Mo.) as the detecting reagent. The DH, defined as described in by Adler-Nissen (1986, Enzymic Hydrolysis of Food Proteins, Elsevier Applied Science Publishers), was determined by reaction of the supernatant with OPA (ortho-phtaldialdehyde, Sigma Chemical Co., St. Louis, Mo.). […]
(§5) A volume of 25 μl of suitably diluted supernatant was mixed with 200 μl of OPA reagent in a microtiter plate well and allowed to react for exactly 2 minutes at 25° C. […] The degree of hydrolysis was calculated on basis of the total amount of protein in the hydrolysis mixture (not on basis of soluble protein).

Wheat Gluten = test: Protein hydrolysis, degree of hydrolysis (DH), wheat gluten; details: Wheat Gluten 2% (w/v), pH 7.0, 18 hours at 50° C.; FLAVOURZYME 3 LAPU, carboxypeptidase 11.5 CPDU
Experimental: as §2, §3, §4, §5

[4] = Specific activity of the carboxypeptidase (CPDU assay); details: 0.5 mM N-CBZ-Ala-Glu, pH 4.5, 25° C.
Experimental: The activity of the carboxypeptidase was determined by measuring the rate of specific hydrolysis of N-CBZ-Ala-Glu. One carboxypeptidase unit (CPDU) is the amount of carboxypeptidase which liberates 1 micromole of glutamate per minute from a 0.5 mM N-CBZ-Ala-Glu solution at pH 4.5 and 25° C. A reagent containing o-phthaldialdehyde in combination with dithiothreitol was used to monitor the liberation of free glutamate under enzymatic hydrolysis according to the procedure of Roth, 1971, supra. The o-phthaldialdehyde reagent was a solution of o-phthaldialdehyde (6 mM) and dithiothreitol (6.5 mM) in 0.1 M sodium tetraborate. Briefly, 0.05 ml of the enzyme solution in 20 mM acetate buffer, pH 4.5 was incubated with 1 ml of substrate. At regular time intervals, a 0.3 ml aliquot was withdrawn, mixed with 0.9 ml of the o-phthaldialdehyde reagent, and the absorption at A340, using a path length of 1 cm, of the resultant product was measured. Where the dependence of A340 on the incubation time was linear, the specific activity of the enzyme was calculated using the equation: specific activity=slope (optical density per min)×11.35. By this procedure, the specific activity of the purified carboxypeptidase was determined to be 11 CPDU per mg protein which is equivalent to 11 micromoles glutamate per minute per mg protein.

[5] = test system: soy meal, wheat gluten, casein and gelatin; test: Protein hydrolysis, DH, summary for all substrates
Experimental: as §2, §3, §4, §5

[6] = Thermostability of the carboxypeptidase (residual activity); details: 10 minute incubation, 50 mM acetate buffer
Gelatin = test: Protein hydrolysis, degree of hydrolysis (DH), gelatin; details: Gelatin 2% (w/v), pH 7.0, 18 hours at 50° C.; FLAVOURZYME 3 LAPU, carboxypeptidase 11.5 CPDU
Experimental: as §2, §3, §4, §5

Casein = test: Protein hydrolysis, degree of hydrolysis (DH), casein; details: Casein 2% (w/v), pH 7.0, 18 hours at 50° C.; FLAVOURZYME 3 LAPU, carboxypeptidase 11.5 CPDU
Experimental: as §2, §3, §4, §5

[7] = substrate: C[C@H](NC(=O)/C=C/c1ccco1)C(=O)N[C@@H](CCCCN)C(=O)O; test: Km of the carboxypeptidase toward furylacryloyl-Ala-Lys; details: other: pH 4.0, 25° C.

In the case of `c1cnc2c(c1)ccc1cccnc12` [1,10-phenanthroline], the “Inhibition of carboxypeptidase activity” value [1] is reported as “does not inhibit”.

For `C[C@H](NC(=O)OCc1ccccc1)C(=O)N[C@@H](Cc1ccccc1)C(=O)O` [N-CBZ-Ala-Phe], the “kcat relative to acid carboxypeptidases O-1 and O-2 from Aspergillus oryzae” value [2] was “at least 8.5 fold”.

In the case of `O=S(=O)(F)Cc1ccccc1` [phenylmethylsulfonyl fluoride], the “Inhibition of carboxypeptidase activity” value [1] is reported as “inhibits carboxypeptidase activity completely”.

In the case of `C[C@H](NC(=O)OCc1ccccc1)C(=O)N1CCC[C@H]1C(=O)O` [N-CBZ-Ala-Pro] (Cbz-Ala-Pro-OH), the “fraction of substrate solution hydrolyzed” value [3] is reported as 16%.

B1: carboxypeptidase: carboxypeptidase purified from FLAVOURZYME broth, approximately 68 kDa serine carboxypeptidase, amino acid sequence SEQ ID NO: 2 (protein, listed as Aspergillus oryzae)
chain: MRGYEFLSVLPLVAASWALPGSTPASVGRRQLPKNPTGVKTLTTANNVTIRYKEPGAEGVCETTPGVKSYSGYVDTSPESHTFFWFFEARHNPETAPITLWLNGGPGSDSLIGLFEELGPCHVNSTFDDYINPHSWNEVSNLLFLSQPLGVGFSYSDTVDGSINPVTGVVENSSFAGVQGRYPTIDATLIDTTNLAAEAAWEILQGFLSGLPSLDSRVQSKDFSLWTESYGGHYGPAFFNHFYEQNERIANGSVNGVQLNFNSLGIINGIIDEAIQAPYYPEFAVNNTYGIKAVNETVYNYMKFANQMPNGCQDLISTCKQTNRTALADYALCAEATNMCRDNVEGPYYAFAGRGVYDIRHPYDDPTPPSYYNKFLAKDSVMDAIGVNINYTQSNNDVYYAFQQTGDFVWPNFIEDLEEILALPVRVSLIYGDADYICNWFGGQAVSLAANYSQAAQFRSAGYTPLKVNGVEYGETREYGNFSFTRVYEAGHEVPYYQPIASLQLFNRTIFGWDIAEGQKKIWPSYKTNGTATATHTQSSVPLPTATSMSSVGMA
For B1, the DH (Soy Meal) was 0, the DH (Wheat Gluten) was 0 and the specific activity [4] was 11 CPDU per mg protein and 11 micromoles glutamate per minute per mg protein. The “effect on DH, enzyme alone” value [5] was “no effect”, the “effect on the DH obtained by FLAVOURZYME when added with FLAVOURZYME” value [5] was “enhanced” and the residual activity ([6]; pH 4.0, 55° C.) was 74%. For the same molecule, the residual activity ([6]; pH 4.0, 60° C.) was 65%, the DH (Gelatin) was 0 and the DH (Casein) was 0.

B2: Aspergillus oryzae ATCC 20386 carboxypeptidase I (Aspergillus oryzae RIB40) (protein)
chain: T1 sequence (Q2TZ11 19-555)
B2 showed a Km [7] of 0.4 mM.
